In article doi:10.1101/2022.07.28.501822:

Biological target: integrin beta1 (SinoBiological 10587-H08H1) (UniProt P05556 21-728)
Assay: fluorescence polarization

Sequence of integrin beta1 (SinoBiological 10587-H08H1) (P05556 21-728): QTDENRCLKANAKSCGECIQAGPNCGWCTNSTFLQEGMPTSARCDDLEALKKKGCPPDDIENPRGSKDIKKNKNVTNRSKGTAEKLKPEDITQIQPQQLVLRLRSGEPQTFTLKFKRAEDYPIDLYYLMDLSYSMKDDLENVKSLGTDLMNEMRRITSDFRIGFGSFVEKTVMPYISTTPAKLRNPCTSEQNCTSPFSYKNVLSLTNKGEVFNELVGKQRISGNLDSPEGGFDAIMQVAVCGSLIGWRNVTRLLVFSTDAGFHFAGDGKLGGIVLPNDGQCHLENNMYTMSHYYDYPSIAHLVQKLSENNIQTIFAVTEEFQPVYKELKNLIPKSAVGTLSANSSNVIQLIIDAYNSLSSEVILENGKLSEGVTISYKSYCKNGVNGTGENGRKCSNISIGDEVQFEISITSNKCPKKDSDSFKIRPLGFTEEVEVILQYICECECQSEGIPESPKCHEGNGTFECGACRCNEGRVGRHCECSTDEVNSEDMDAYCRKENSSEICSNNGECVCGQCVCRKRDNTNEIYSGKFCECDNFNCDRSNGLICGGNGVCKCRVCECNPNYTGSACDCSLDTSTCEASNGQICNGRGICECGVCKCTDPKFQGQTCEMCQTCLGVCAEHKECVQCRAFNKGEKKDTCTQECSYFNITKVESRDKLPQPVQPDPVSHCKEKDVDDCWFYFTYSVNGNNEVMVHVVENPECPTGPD

B1: FAM-GreenB1 (ssDNA)
DNA: ATCCAGAGTGACGCAGCATGGGGGTAGTGGTGGTTAGGAGTGGAGGCGAGGAGAGCGGTGGACACGGTGGCTTAGT
Kd: 7 nM
